The chains are these.
B1: PR302934 (antibody, human IgG1, kappa, V domains shown)
VH: QVQLQQWGAGLLKPSETLSLTCAVYGGSFSGYYWSWIRQTLGKGLEWIGEVSHSGGTNYNPSLKSRVTISVDTSKNQFSLKLSSVTAADTAVYYCARSPYYGDYMYVFDIWGQGTMVTVSS
VL: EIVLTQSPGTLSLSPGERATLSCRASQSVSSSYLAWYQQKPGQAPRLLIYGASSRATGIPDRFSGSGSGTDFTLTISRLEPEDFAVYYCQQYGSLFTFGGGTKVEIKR
notes: IgG1; also called PR302934 (IgG1)
B2: PR304683 (antibody, V domains shown)
VH: QVQLVQSGAEVKKPGASVKVSCKASGYTFTDYYINWVRQAPGQGLEWMGNVNPNDGGTTYNQKFKGRVTMTTDTSTSTAYMELRSLRSDDTAVYYCARREIYFYGTIYYYAMDYWGQGTLVTVSS
VL: DIQLTQSPSFLSASVGDRVTITCRASESVDYYGNSFMYWYQQKPGKAPKLLIYFASNLESGVPSRFSGSGSGTEFTLTISSLQPEDFATYYCQQNNEDPWTFGGGTKVEIK
notes: also called Control antibody PR304683 (NGM: WO2021127200); NGM707
B3: PR302264-2 (antibody, human IgG4 S228P, kappa, V domains shown)
VH: QVQLQQWGAGLLKPSETLSLTCAVYGGSLSGYYWSWIRQPPGKGLEWIGEIAHSGGTNYNPSLKSRVTISVPTSKNQFSLKLTSVTAADTAVYYCARGQQQLDWYFDLWGRGTLVTVSS
VL: EIVMTQSPATLSVSPGERATLSCRASQNIYSHLVWYQQKPGQAPRLLIYGASTRATGIPARFSGSGSGTEFTLTITSLQSEDFTVYYCQQYNDWPPITFGQGTRLEIRR
notes: PTM variant of PR302264, IgG4; also called PR302264-2 (IgG4)
B4: PR302264-3 (antibody, human IgG4 S228P, kappa, V domains shown)
VH: B3 VH with A52T
VL: B3 VL
notes: PTM variant of PR302264, IgG4; also called PR302264-3 (IgG4)
B5: PR302927 (antibody, human IgG1, kappa, V domains shown)
VH: EVQLLESGGGLVQPGGSLRLSCAASGFTFSSYAMSWVRQAPGKGLEWVSTINHIGDSTYYADSVKGRFTISRDNSKNTLYLQMNSLRAEDTAVYYCAKDQWFGVFDYWGQGTLVTVSS
VL: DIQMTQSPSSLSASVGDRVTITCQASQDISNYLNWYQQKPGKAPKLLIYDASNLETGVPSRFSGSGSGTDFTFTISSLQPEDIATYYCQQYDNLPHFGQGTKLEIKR
notes: IgG1; also called PR302927 (IgG1)
B6: PR302951 (antibody, human IgG1, kappa, V domains shown)
VH: EVQLLESGGGLVQPGGSLRLSCAASRFTFSTYAMSWVRQAPGKGLEWVSSISGSGFNTYYADSVKGRFTISSDSSKNTLYLQMNSLRAEDTAVYYCAKDRQWLVSSFDYWGQGTLVTVSS
VL: DIQMTQSPSSLSASVGDRVTITCQASQDISNYLNWYQQKPGKAPKLLIYDASNLETGVPSRFSGSGSGTDFTFTISSLQPEDIATYYCQQYDNLITFGQGTRLEIKR
notes: IgG1; also called PR302951 (IgG1)
B7: PR302282 (antibody, human IgG1, kappa, V domains shown)
VH: QVQLVESGGTVVQSGRSLRLSCAASGFTFSSYGMHWVRQAPGKGLEWVAGMWYDGNYKYYADSVKGRFTISRDNSKNTLSLQMNSLRAEDTAVYYCARDSPIGVFDYWGQGTLVTVSS
VL: B6 VL
notes: IgG1; also called PR302282 (IgG1)
B8: PR302949 (antibody, human IgG1, kappa, V domains shown)
VH: B6 VH with R26G, T31S, G55D, N57S, S72R, S74T, Y109F, T114A
VL: B6 VL
notes: IgG1; also called PR302949 (IgG1)
B9: PR302261 (antibody, human IgG1, kappa, V domains shown)
VH: EVQLLESGGGLVQSGGSLRLSCAASGFTFSSYAMSWVRQAPGKGLGWVSTISGSGGSAYYADSVKGRFTVSRDNSKKTLYLQMNSLRAEDTAVYFCAILSGDDAFDIWGQGTMVTVSS
VL: DVVMTQSPLSLPVTPGEPASISCRSSQSLLRGNGYNYLDWYLQKPGQSPQLLIYLGSNRASGVPDRFSGSGSGTDFTLKISRVEAEDVGIFYCMQALQSPLTFGGGTKVEIKR
notes: IgG1; also called PR302261 (IgG1)
B10: PR001795 (antibody, V domains shown)
VH: EVQLQQWGAGLLKPSETLSLTCAVYGGSFSGYYWSWIRQPPGKGLEWIGEINHAGSTNYNPSLKSRVTISVDTSKNQFSLKLSSVTAADTAVYYCARLPTRWVTTRYFDLWGRGTLVTVSS
VL: ESVLTQPPSVSGAPGQRVTISCTGSSSNIGAGYDVHWYQQLPGTAPKLLIYGDSNRPSGVPDRFSVSKSGASASLAITGLQAEDEADYYCQSFDNSLSAYVFGGGTQLTVL
notes: also called control antibody PR001795 (Merck: US20180298096); MK-4830
B11: PR302264 (antibody, human IgG1, kappa, V domains shown)
VH: B3 VH with A52N
VL: B3 VL
notes: IgG1; also called PR302264 (IgG1)
B12: PR302259 (antibody, human IgG1, kappa, V domains shown)
VH: EVQLLESGGGLVQPGGSLRLSCAVSGFTFSSYAMSWVRQAPGKGLEWVSAISDNAGSTYYADSVKGRFTISRDNSKNTLHLQMNSLRAEDTAVYSCAKERQWLVLGVMDAWGQGASVTVSS
VL: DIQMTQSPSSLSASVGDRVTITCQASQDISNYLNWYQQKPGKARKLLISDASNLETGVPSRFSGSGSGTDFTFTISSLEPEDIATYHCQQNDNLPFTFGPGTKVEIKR
notes: IgG1; also called PR302259 (IgG1)
B13: PR302702 (antibody, human IgG1, kappa, V domains shown)
VH: B6 VH with R26G, S35T, G55D, S72R, S74I, R100Q, Q101E, S105R, D108H, Y109H
VL: DIQMTQFPSSLFAFVGDRVTITCQASQDISNYLNWYQQKAGKAPKLLINDASNLETGVPSRFSGSGFGTDFTFTISSLQPEDFATYYCQQYENLPTFGGGTKVEIKR
notes: IgG1; also called PR302702 (IgG1)
B14: PR302950 (antibody, human IgG1, kappa, V domains shown)
VH: QVQLQESGPGLVKPSGTLSLTCAVSGGSISSSNWWSWVRQPPGKGLEWIGEVYHSGSTNYNPSLKSRVTISVDKSQNQFSLKLTSVTAADTAVYYCARVTGNKDYYYYDLDVWGQGTTVTVSS
VL: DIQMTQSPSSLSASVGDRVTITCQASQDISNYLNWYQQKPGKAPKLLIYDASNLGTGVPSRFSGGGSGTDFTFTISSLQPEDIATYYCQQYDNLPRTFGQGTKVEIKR
notes: IgG1; also called PR302950 (IgG1)
B15: PR301366 (antibody, V domains shown)
VH: EVQLLESGGGLVQPGGSLRLSCAASGFTFSNYAMNWVRQAPGKGLEWVSVISVSGGSTYYADSVKGRFTISRDNSKNTLYLQMNSLRAEDTAVYYCAKDYYYDSGSYYDSFFDYWGQGTLVTVSS
VL: not shown
notes: also called control antibody PR301366 (Five Prime: WO2020014132)

Numbering of substitutions follows the chain as printed.

As a reminder, the Kd is the equilibrium constant for the complex coming apart. A higher Kd goes with a looser complex. What is called kon is a measure of how fast the partners come together. A lower kon goes with slow association. Usually EC50 stands for the concentration needed to bring the measured effect to its halfway point.

T8 sequence (Q8N423 other isoform, or with tags, fused parts or gaps limits assumed): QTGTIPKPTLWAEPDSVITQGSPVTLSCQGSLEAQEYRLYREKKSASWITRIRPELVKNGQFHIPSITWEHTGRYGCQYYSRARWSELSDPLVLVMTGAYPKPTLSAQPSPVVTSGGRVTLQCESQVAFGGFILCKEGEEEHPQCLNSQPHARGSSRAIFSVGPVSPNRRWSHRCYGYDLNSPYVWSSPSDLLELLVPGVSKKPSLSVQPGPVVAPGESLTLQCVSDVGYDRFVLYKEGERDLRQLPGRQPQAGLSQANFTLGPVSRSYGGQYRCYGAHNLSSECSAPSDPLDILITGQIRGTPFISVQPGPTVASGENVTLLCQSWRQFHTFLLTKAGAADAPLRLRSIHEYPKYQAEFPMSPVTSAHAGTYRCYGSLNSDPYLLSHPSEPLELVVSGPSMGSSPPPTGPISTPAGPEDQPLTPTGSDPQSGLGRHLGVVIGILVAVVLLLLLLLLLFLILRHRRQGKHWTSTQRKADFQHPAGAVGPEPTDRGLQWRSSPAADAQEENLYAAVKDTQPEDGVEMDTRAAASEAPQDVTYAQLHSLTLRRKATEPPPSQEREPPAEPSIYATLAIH
T1 sequence (P59901 24-446 limits assumed): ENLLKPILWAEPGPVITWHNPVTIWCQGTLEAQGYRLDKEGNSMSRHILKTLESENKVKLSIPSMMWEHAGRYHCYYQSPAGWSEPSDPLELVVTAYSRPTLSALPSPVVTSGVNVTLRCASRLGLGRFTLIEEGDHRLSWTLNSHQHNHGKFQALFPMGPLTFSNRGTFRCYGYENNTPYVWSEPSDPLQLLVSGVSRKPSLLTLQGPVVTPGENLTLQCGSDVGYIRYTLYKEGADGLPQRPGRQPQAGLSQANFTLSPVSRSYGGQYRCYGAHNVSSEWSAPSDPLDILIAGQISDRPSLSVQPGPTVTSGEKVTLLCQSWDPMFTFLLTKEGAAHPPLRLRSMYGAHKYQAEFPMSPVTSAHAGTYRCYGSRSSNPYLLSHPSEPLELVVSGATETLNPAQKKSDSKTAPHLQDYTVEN

One assay concerns the target T1, human LILRA4 (R&D System, Cat: 8914-T4-050) (human, UniProt P59901 24-446).
T1 construct: Bought protein; also called LILRA4 (ILT7); ILT7
Kind of assay: ELISA, protein coated at 1 µg/mL, antibody at 100 nM, OD450. A general note: ELISA stands for enzyme-linked immunosorbent assay.
Take B1: the binding result is on record as “binds”.

The target in the next assay is T2, human ILT4-ECD protein (human, UniProt Q8N423 22-460).
T2 construct: also called HuILT4; LILRB2 (ILT4)
T2 sequence (Q8N423 other isoform, or with tags, fused parts or gaps limits assumed): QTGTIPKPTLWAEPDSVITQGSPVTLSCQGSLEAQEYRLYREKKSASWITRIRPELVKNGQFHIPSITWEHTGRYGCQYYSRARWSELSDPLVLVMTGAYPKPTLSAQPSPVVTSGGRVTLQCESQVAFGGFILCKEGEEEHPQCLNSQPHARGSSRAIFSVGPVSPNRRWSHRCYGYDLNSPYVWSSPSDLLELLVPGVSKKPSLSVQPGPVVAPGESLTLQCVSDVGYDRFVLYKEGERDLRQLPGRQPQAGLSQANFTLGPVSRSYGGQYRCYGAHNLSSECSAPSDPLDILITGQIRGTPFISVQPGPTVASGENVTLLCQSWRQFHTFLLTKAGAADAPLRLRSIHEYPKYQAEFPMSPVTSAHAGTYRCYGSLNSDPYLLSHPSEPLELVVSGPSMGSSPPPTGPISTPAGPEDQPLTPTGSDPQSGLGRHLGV
Described as above.
Take B2: the binding result was “binds”.

The next assay deals with T3, human LILRB3 (R&D System, Cat: 9159-T5-050) (human, UniProt O75022 24-443).
T3 construct: Bought protein; also called LILRB3 (ILT5); ILT5
The description is as above.
Take B1: the binding result is recorded as “binds”.

A further assay deals with T4, human LILRA6 (R&D System, Cat: 9088-T4-050) (human, UniProt Q6PI73 24-447).
T4 construct: Bought protein; also called LILRA6 (ILT8); ILT8
T4 sequence (Q6PI73 24-447 limits assumed): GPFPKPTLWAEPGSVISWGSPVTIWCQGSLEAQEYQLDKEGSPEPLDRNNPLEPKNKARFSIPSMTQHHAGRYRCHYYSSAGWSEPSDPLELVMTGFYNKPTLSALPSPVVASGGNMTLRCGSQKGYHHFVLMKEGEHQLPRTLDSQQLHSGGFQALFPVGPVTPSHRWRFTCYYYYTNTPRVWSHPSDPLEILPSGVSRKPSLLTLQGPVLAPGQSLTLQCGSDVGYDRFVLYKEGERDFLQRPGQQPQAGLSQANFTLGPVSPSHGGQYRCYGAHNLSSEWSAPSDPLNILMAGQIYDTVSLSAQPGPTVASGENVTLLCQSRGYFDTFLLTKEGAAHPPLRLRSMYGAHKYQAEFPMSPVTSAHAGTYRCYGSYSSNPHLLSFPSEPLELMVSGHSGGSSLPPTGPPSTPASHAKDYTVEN
The description is as above.
Consider B1, for which the binding result is reported as “binds”.

A further assay deals with T5, human LILRA1 (R&D System, Cat: 9226-T4-050) (human, UniProt O75019 17-461).
T5 construct: Bought protein; also called LILRA1 (LIR6); LIR6
T5 sequence (O75019 17-461 limits assumed): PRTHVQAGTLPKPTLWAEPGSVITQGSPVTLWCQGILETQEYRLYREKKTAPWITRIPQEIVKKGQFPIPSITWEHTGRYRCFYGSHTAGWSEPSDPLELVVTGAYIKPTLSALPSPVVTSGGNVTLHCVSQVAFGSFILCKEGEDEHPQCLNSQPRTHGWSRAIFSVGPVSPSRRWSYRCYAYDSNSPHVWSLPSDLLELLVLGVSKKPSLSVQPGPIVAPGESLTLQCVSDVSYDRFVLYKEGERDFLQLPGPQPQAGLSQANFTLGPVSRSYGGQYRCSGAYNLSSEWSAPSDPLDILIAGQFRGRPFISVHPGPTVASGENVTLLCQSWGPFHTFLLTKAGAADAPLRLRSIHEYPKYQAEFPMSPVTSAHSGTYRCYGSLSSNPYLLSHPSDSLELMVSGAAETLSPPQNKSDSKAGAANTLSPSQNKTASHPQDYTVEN
The description is as above.
Consider B2, for which the binding result is recorded as “binds”.
In the case of B1, the binding result is on record as “binds”.
The same measure, in the same setting: the result for B3 reads “binds”.

The target in a further assay is T6, human LILRA3 (R&D System, Cat: 9517-T4-100) (human, UniProt Q8N6C8 24-439).
T6 construct: Bought protein; also called LILRA3 (LIR4)
T6 sequence (Q8N6C8 24-439 limits assumed): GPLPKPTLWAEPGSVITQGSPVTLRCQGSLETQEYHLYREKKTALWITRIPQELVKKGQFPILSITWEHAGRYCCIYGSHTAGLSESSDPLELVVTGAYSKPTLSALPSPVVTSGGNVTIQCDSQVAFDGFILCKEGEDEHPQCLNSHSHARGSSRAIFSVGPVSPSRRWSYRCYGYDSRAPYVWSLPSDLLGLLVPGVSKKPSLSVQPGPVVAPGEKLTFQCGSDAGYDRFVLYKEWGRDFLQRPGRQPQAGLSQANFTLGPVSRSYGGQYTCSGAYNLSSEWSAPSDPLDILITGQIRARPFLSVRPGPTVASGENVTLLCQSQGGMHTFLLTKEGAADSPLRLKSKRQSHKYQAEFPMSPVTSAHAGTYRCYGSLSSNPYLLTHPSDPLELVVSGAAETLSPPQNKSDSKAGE
The assay is described as above.
With B2, the binding result was “binds”.

Another assay deals with T7, human ILT2-ECD protein (human, UniProt Q8NHL6 24-461).
T7 construct: also called LILRB1 (ILT2)
T7 sequence (Q8NHL6 24-461 limits assumed): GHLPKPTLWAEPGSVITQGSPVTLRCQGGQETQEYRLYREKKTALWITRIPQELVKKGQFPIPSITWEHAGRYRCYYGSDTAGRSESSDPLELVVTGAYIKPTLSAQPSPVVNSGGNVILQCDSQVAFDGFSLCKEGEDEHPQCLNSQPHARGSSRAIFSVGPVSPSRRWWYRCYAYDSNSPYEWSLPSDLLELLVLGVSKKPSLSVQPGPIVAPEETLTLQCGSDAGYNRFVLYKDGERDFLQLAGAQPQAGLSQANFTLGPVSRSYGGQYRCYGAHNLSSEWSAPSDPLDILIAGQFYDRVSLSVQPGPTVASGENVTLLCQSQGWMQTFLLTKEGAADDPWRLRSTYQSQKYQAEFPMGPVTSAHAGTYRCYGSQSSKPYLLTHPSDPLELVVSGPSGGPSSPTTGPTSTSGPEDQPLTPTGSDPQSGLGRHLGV
The description is as above.
For B2, the binding result is on record as “binds”.
For the molecule B1, the binding result was “binds”.
Turning to B3, the binding result is listed as “binds”.

A further assay addresses T7, human ILT2-ECD protein. The experiment in a line: ELISA, human ILT2-ECD coated at 1 µg/mL.
As for B4, the binding result is given as “binds”.

The target in another assay is T2, human ILT4-ECD protein. Kind of assay: BLI (Octet RED96e), antibody on AHC biosensor, HuILT4 at 100/50/25 nM. For orientation: Biolayer interferometry detects binding as a change in optical thickness at a sensor tip.
For B1, the affinity, expressed as Kd, was 0.458 nM and the kon was 694000 M⁻¹ s⁻¹.
With B5, the Kd is 0.884 nM and the kon stood at 980000 M⁻¹ s⁻¹.
B6 had a Kd of 0.256 nM and a kon of 915000 M⁻¹ s⁻¹.
The like results for B7 were, in that order, 0.124 nM and 648000 M⁻¹ s⁻¹.
The like results for B8 were, in that order, 0.454 nM and 985000 M⁻¹ s⁻¹.
As for B9, binding was put at a Kd of 0.984 nM and the kon amounted to 520000 M⁻¹ s⁻¹.
The molecule B10 yielded a Kd of 3.52 nM and a kon of 431000 M⁻¹ s⁻¹.
As to B3, the Kd turned out to be 0.0767 nM and the kon came to 472000 M⁻¹ s⁻¹.
The like results for B11 were, in that order, 0.242 nM and 462000 M⁻¹ s⁻¹.
The like results for B4 were, in that order, 0.351 nM and 454000 M⁻¹ s⁻¹.
As to B12, the equilibrium dissociation constant (Kd) is under 0.001 nM and the kon came to 773000 M⁻¹ s⁻¹.

A further assay has as its target T8, human ILT4 expressed on the surface of CHO cells (CHO-huILT4) (human, UniProt Q8N423 22-597).
T8 construct: CHO cells infected with lentivirus lenti-huILT4; also called CHO-ILT4; CHO-huILT4 cells
The experiment in a line: flow cytometry on CHO-huILT4 cells. Background: In flow cytometry, cells or beads pass a laser one at a time.
For the molecule B1, the EC50 is 1.13 nM.
In the case of B5, a half-maximal response (EC50) required 0.805 nM.
Same read-out and setting: the result for B6 reads 1.05 nM.
As for B13, the EC50 came out at 1.58 nM.
The same measure, in the same setting: the result for B8 reads 0.822 nM.
The molecule B14 registered an EC50 of 1.09 nM.
In turn, B15 showed an EC50 of 1.07 nM.

The values above are taken from EP4628508A1 (Biodlink Biopharm Co., Ltd., dated 2025).
